Assay results taken from patent US20250155441A1 (ROCHE DIAGNOSTICS OPERATIONS, published 2025).
The star is where a group is joined. G0F = fucosylated biantennary N-glycan, CC(=O)N[C@@H]1[C@@H](O)[C@H](O[C@@H]2O[C@H](CO)[C@@H](O[C@@H]3O[C@H](CO[C@H]4O[C@H](CO)[C@@H](O)[C@H](O)[C@@H]4O[C@@H]4O[C@H](CO)[C@@H](O)[C@H](O)[C@H]4NC(C)=O)[C@@H](O)[C@H](O[C@H]4O[C@H](CO)[C@@H](O)[C@H](O)[C@@H]4O[C@@H]4O[C@H](CO)[C@@H](O)[C@H](O)[C@H]4NC(C)=O)[C@@H]3O)[C@H](O)[C@H]2NC(C)=O)[C@@H](CO[C@@H]2O[C@@H](C)[C@@H](O)[C@@H](O)[C@@H]2O)O[C@H]1*

T1: AFP(243-261)[Acetyl-243; Asn(G0F)251; Bi-PEG] (human, N-terminal acetylation; G0F (fucosylated biantennary N-glycan) on Asn corresponding to Asn-251; C-terminal E(biotinyl-PEG)-NH2)
T1 construct: Synthetic glycopeptide
T1 peptide: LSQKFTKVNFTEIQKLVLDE

T2: AFP(243-261)[Asn(Fuc-GlcNAc)Bi-PEG] (human, not fully specified; Fuc-GlcNAc disaccharide on Asn corresponding to Asn-251; C-terminal E(biotinyl-PEG)-NH2)
T2 peptide: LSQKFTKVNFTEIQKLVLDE

T3: AFP(243-261)[Ac-243; Asn(G2)251; Bi-PEG] (human, N-terminal acetylation; G2 (non-fucosylated biantennary N-glycan) on Asn corresponding to Asn-251; C-terminal E(biotinyl-PEG)-NH2)
T3 peptide: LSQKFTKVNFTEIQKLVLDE

B1: mAb<AFP-L3>rRb-19B12-IgG (antibody, V domains shown)
VH: QSVEESGGRLVAPGTPLTLTCTVSGIDLSTYGMGWVRQAPGKGLEWIGIIGDNGSTYYANWAKGRFTISKTSTTVDLKMTSLTTEDTATYFCARDRDPSSSGYYFKMWGPGTLVTVSL
VL: ALVMTQTPSSVSAAVGGTVTINCQASQSISSYLAWYQQKPGQPPKLLIFGASNLESGVPSRFKGSGSGTEFTLTISDLECDDAATYYCQTAFYIFSSDNAFGGGTEVVVK
notes: Recombinant rabbit IgG (B-cell supernatant in the Hit-ELISA, expressed in HEK293 afterwards); also called antibody 19B12; clone 19B12
B2: mAb<AFP-L3>rRb-3C5-IgG (antibody, V domains shown)
VH: QSVEESGGRLVAPGTPLTLTCTVSGIDLSTYGMGWVRQAPGKGLEYIGIIDSGSTYYANWAKGRFTISKTSTTVDLKMTSLTTEDTATYFCARDRDPSSSGYYFKMWGPGTLVTVSL
VL: ALVMTQTPSSVSAAVGGTVTINCQASQSIGSYLAWYQQKPGQPPRLLIYGASNLESGVPSRFKGSGSGTEFTLTISDLECDDAATYYCQTAFYIFSSDNAFGGGTEVVVK
notes: Recombinant rabbit IgG; also called antibody 3C5; clone 3C5
B3: AFP(248-256)Ac-248]amid (peptide)
peptide: Ac-TKVNFTEIQ-NH2
notes: also called BMO 35.000373
B4: AFP(243-261)[Ac-243; Asn(G0F)251]amid (peptide)
peptide: Ac-LSQKFTKVN(G0F)FTEIQKLVLD-NH2
notes: also called BMO 35.000315

Assays:
[1] = target: T1, AFP(243-261)[Acetyl-243; Asn(G0F)251; …; assay: SPR; ratio of KD against the KD for AFP(243-261)-G0F-Bi (reference itself)
Method: (§1) The dissociation equilibrium constant K) was determined via the Affinity in Solution method (AiS).
(§2) With increasing peptide concentration as a competitor, the ‘free’ antibody in solution decreases. The determined free antibody concentrations for the competition experiment were plotted versus the peptide competitor concentration. The regeneration was performed using a Guanidinium/NaOH solution, as supplied by Cytiva. Two independent series were analyzed for each interaction. The Affinity in Solution model from Biacore Evaluation software was used to evaluate the data.

[2] = target: B3; assay: affinity in solution; ratio of KD against the KD for AFP(243-261)-G0F
Method: as §1, §2

[3] = target: B3; assay: SPR affinity in solution: 10 nM antibody with 200 µM-0.1 nM free peptide, free antibody read on AFP(243-261)-G0F-Bi CAP chip, n=2
Method: as §1, §2

[4] = target: T2, AFP(243-261)[Asn(Fuc-GlcNAc)Bi-PEG]; assay: SPR Biacore T200, 37 C, antibody captured on C1 chip, peptide as analyte, Langmuir 1:1
Method: (§3) Detailed kinetic investigations were performed using a BIAcore™ T200 instrument from GE Healthcare at 37° C. The 5 rabbit mAb<AFP-L3>L9B12, 3C5, 3D2, 3A3 and 6B6, identified via the kinetic screening, were kinetically characterized for binding AFP-L3 peptides [0656] […] Asn(G0F)-Bi [0658]
(§4) The rabbit antibody capture system was immobilized on flow cells 1-4 as described with 700 to 800 RU. Flow cell 1 served as reference, flow cells 2, 3 and 4 were used for interaction measurements. 150 nM antibodies 1-5 were injected at 10 μL/min for 30 seconds. The Capture Levels (CL) in resonance units RU were monitored. Peptide analyte concentration series from 3.3-270 nM were injected at 60 μl/min. The association phase was monitored for 3 minutes, the dissociation phase was monitored for 10 minutes. The regeneration was performed by an injection of 10 mM Glycine pH 2.0 at 20 μL/min for 30 seconds, followed by 2 injections of 10 mM Glycine pH 2.25 for 60 seconds. The kinetic rate constants and the dissociation equilibrium constants KD were determined using a Langmuir 1:1 fitting model according to the BIAcore™ T200 Evaluation SW 3.2. Secondly, the Langmuir 1:1 fitting Scrubber-SW V2.0c was applied.

[5] = target: T1, AFP(243-261)[Acetyl-243; Asn(G0F)251; …; assay: as above
Method: as §3, §4

[6] = target: T3, AFP(243-261)[Ac-243; Asn(G2)251; Bi-PEG]; assay: SPR Biacore T200, 37 C; simulation for 7.3 µM-10 nM extrapolated from measured data; SPR simulation for 7.3 µM-10 nM, extrapolated lower bound
[7] = target: T3, AFP(243-261)[Ac-243; Asn(G2)251; Bi-PEG]; assay: SPR; ratio of KD against the KD for AFP(243-261)-G0F-Bi; SPR; ratio of KD to the KD for G0F
Method: as §3, §4

[8] = target: T2, AFP(243-261)[Asn(Fuc-GlcNAc)Bi-PEG]; assay: SPR; ratio of KD against the KD for AFP(243-261)-G0F-Bi
[9] = target: T2, AFP(243-261)[Asn(Fuc-GlcNAc)Bi-PEG]; assay: SPR Biacore T200, 37 C; molar ratio (binding stoichiometry)
Method: as §3, §4

[10] = target: T1, AFP(243-261)[Acetyl-243; Asn(G0F)251; …; assay: as above
Method: as §3, §4

[11] = target: B4; assay: SPR affinity in solution: 10 nM antibody with 120 nM-0.01 nM free peptide, free antibody read on AFP(243-261)-G0F-Bi CAP chip, n=2
Method: as §1, §2

[12] = target: T3, AFP(243-261)[Ac-243; Asn(G2)251; Bi-PEG]; assay: SPR Biacore T200, 37 C, weak binding (cell shifted to the kd column); SPR, weak binding; KD only, no rate constants
[13] = target: T1, AFP(243-261)[Acetyl-243; Asn(G0F)251; …; assay: SPR Biacore T200, 37 C, antibody captured on C1 chip, peptide as analyte, Langmuir 1:1; apparent value (complex binding behavior)
Method: as §3, §4
By visual inspection, the kinetic signature for antibody 3C5 is close to the antibody saturation for the highest shown concentration 90 nM.

[14] = target: B1; assay: SPR affinity in solution (Biacore, CAP chip): 10 nM antibody equilibrated with the non-biotinylated, non-glycosylated peptide at varied concentration; free antibody measured by its binding to captured AFP(243-261)-G0F-Bi; n=2 [continued), lower plot]
Method: as §1, §2

[15] = target: B2; assay: SPR affinity in solution (Biacore, CAP chip): 10 nM antibody equilibrated with the non-biotinylated, non-glycosylated peptide at varied concentration; free antibody measured by its binding to captured AFP(243-261)-G0F-Bi; n=2 [continued]
Method: as §1, §2

[16] = target: B2; assay: SPR affinity in solution (Biacore, CAP chip): 10 nM antibody equilibrated with the non-biotinylated peptide at varied concentration; free antibody measured by its binding to captured AFP(243-261)-G0F-Bi; n=2 [continued), upper plot]
Method: as §1, §2

[17] = target: B1; assay: SPR affinity in solution (Biacore, CAP chip): 10 nM antibody equilibrated with the non-biotinylated peptide at varied concentration; free antibody measured by its binding to captured AFP(243-261)-G0F-Bi; n=2
Method: as §1, §2

Binder | Delta KD [1] [fold] | Delta KD [2] [fold] | Kd [3] [nM] | Kd [4] [nM] | koff [4] [s⁻¹] | kon [4] [M⁻¹ s⁻¹] | t/2 diss [4] [min] | Delta KD [7] [fold] | Delta KD [8] [fold] | MR [9] | MR [10] | Kd [11] [nM] | other results
B1 | 1 | > 5000 | 5700 | 18 | 0.0047 | 270000 | 2.5 | > 245 | > 7 | 1.3 | 1.4 | 0.9 | Kd [5]: 2.5 nM; koff [5]: 0.0015 s⁻¹; kon [5]: 600000 M⁻¹ s⁻¹; t/2 diss [5]: 8 min; Kd [6]: > 620 nM
B2 | 1 | > 5000 | 12600 | 35 | 0.016 | 450000 | 0.7 | > 180 | > 11 | 1.5 | 1.6 | 0.4 | Kd [12]: 560 nM; Kd [13]: 3.1 nM; koff [13]: 0.0032 s⁻¹; kon [13]: 1e+06 M⁻¹ s⁻¹
B3 | – | – | – | – | – | – | – | – | – | – | – | – | binding result [14]: binds; binding result [15]: binds
B4 | – | – | – | – | – | – | – | – | – | – | – | – | IC50 (read off the curve) [16]: ~5 nM; IC50 (read off the curve) [17]: ~6 nM
